Holding throughout (settings): liposome binding signal on yeast proteome chip, Cy3-streptavidin detection
The subject of data set [1] is phosphatidylcholine (PC) liposomes. Kind of data set: Yeast proteome chip probed with PC liposomes. Summed up:
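Yeast proteome chips incubated 1 h at RT with sonicated liposomes of PC containing 1% (w/w) biotin-DHPE, plus 5% (w/w) of the indicated phosphoinositide where applicable. After PBS washes, bound liposomes detected with Cy3- or Cy5-streptavidin (>30 min, RT, dark) and fluorescence scanned.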

In the next data set the test system is PI(3,4,5)P3 liposomes. Kind of data set: Yeast proteome chip probed with PI(3,4,5)P3 liposomes.
The test system of the next data set is PI(3,4)P2 liposomes. Kind of data set: Yeast proteome chip probed with PI(3,4)P2 liposomes.
The test system of a further data set is PI(3)P liposomes. Kind of data set: Yeast proteome chip probed with PI(3)P liposomes.
A further data set has as its system PI(4,5)P2 liposomes. Kind of data set: Yeast proteome chip probed with PI(4,5)P2 liposomes.
Another data set deals with PI(4)P liposomes. Kind of data set: Yeast proteome chip probed with PI(4)P liposomes.

Here are results for five molecules from US20050182242A1, “Global analysis of protein activities using proteome chips” (priority 2001, published 2005).

B1: CAK1: yeast GST-HisX6 fusion protein on proteome chip (protein, UniProt P43568 1-368, looked up)
Serine/threonine-protein …: MKLDSIDITHCQLVKSTRTARIYRSDTYAIKCLALDFDIPPHNAKFEVSILNKLGNKCKHILPLLESKATDNNDLLLLFPFEEMNLYEFMQMHYKRDRRKKNPYYDLLNPSIPIVADPPVQKYTNQLDVNRYSLSFFRQMVEGIAFLHENKIIHRDIKPQNIMLTNNTSTVSPKLYIIDFGISYDMANNSQTSAEPMDSKVTDISTGIYKAPEVLFGVKCYDGGVDVWSLLIIISQWFQRETSRMGHVPAMIDDGSDDMNSDGSDFRLICSIFEKLGIPSIQKWEEVAQHGSVDAFVGMFGADGDGKYVLDQEKDVQISIVERNMPRLDEIADVKVKQKFINCILGMVSFSPNERWSCQRILQELEKP
modifications: GST-HisX6 tag
notes: yeast GST-HisX6 fusion protein on proteome chip
Regarding B1, the PC in data set [1] is 854.02. Besides, the “PI(3, 4, 5)P3” value in the data set with PI(3,4,5)P3 liposomes was determined as 269.10. In addition, the “PI(3, 4)P2” value in the data set on PI(3,4)P2 liposomes is reported as 245.20. The “PI(3)P” value in the data set on PI(3)P liposomes is listed as 99.50. For the same molecule, in the data set with PI(4,5)P2 liposomes, the “PI(4, 5)P2” value amounted to 233.85. In the data set with PI(4)P liposomes, the “PI(4)P” value amounted to 1431.44.

B2: SDS22: yeast GST-HisX6 fusion protein on proteome chip (protein, UniProt P36047 1-338, looked up)
Protein phosphatase 1 …: MDKNSVNKDSEEKDERHKIEVVDDTNPDFITADSELTQDLPDDVEVIDLVHLKIKSLEDLNLYRFKNLKQLCLRQNLIESISEVEVLPHDKIVDLDFYDNKIKHISSNVNKLTKLTSLDLSFNKIKHIKNLENLTDLENLYFVQNSISKIENLSTLKSLKNLELGGNKVHSIEPDSFEGLSNLEEIWLGKNSIPRLINLHPLKNLKILSIQSNKLKKIENLEELTNLEELYLSHNFITKIEGLEKNLKLTTLDVTSNKITSLENLNHLSNLTDIWASFNKIDQSFESLGENLSALSRLETIYLEGNPIQLENKTSYRRKLTMNLPPSLQKIDATYIRG
modifications: GST-HisX6 tag
notes: as for B1
In the case of B2, the PC in data set [1] was −4.70. Also, the “PI(3, 4, 5)P3” value in the data set with PI(3,4,5)P3 liposomes is −2.14. Also, the “PI(3, 4)P2” value in the data set on PI(3,4)P2 liposomes was 4.71. The “PI(3)P” value in the data set with PI(3)P liposomes is recorded as 2.00. In the data set on PI(4,5)P2 liposomes, the “PI(4, 5)P2” value came to 14.15. Also, the “PI(4)P” value in the data set on PI(4)P liposomes is 13.28.

B3: APG1: yeast GST-HisX6 fusion protein on proteome chip (protein, UniProt P53104 1-897, looked up)
Serine/threonine-protein …: MGDIKNKDHTTSVNHNLMASAGNYTAEKEIGKGSFATVYRGHLTSDKSQHVAIKEVSRAKLKNKKLLENLEIEIAILKKIKHPHIVGLIDCERTSTDFYLIMEYCALGDLTFLLKRRKELMENHPLLRTVFEKYPPPSENHNGLHRAFVLSYLQQLASALKFLRSKNLVHRDIKPQNLLLSTPLIGYHDSKSFHELGFVGIYNLPILKIADFGFARFLPNTSLAETLCGSPLYMAPEILNYQKYNAKADLWSVGTVVFEMCCGTPPFRASNHLELFKKIKRANDVITFPSYCNIEPELKELICSLLTFDPAQRIGFEEFFANKVVNEDLSSYELEDDLPELESKSKGIVESNMFVSEYLSKQPKSPNSNLAGHQSMADNPAELSDALKNSNILTAPAVKTDHTQAVDKKASNNKYHNSLVSDRSFEREYVVVEKKSVEVNSLADEVAQAGFNPNPIKHPTSTQNQNVLLNEQFSPNNQQYFQNQGENPRLLRATSSSSGGSDGSRRPSLVDRRLSISSLNPSNALSRALGIASTRLFGGANQQQQQQQITSSPPYSQTLLNSQLFHELTENIILRIDHLQHPETLKLDNTNIVSILESLAAKAFVVYSYAEVKFSQIVPLSTTLKGMANFENRRSMDSNAIAEEQDSDDAEEEDETLKKYKEDCLSTKTFGKGRTLSATSQLSATFNKLPRSEMILLCNEAIVLYMKALSILSKSMQVTSNWWYESQEKSCSLRVNVLVQWLREKFNECLEKADFLRLKINDLRFKHASEVAENQTLEEKGSSEEPVYLEKLLYDRALEISKMAAHMELKGENLYNCELAYATSLWMLETSLDDDDFTNAYGDYPFKTNIHLKSNDVEDKEKYHSVLDENDRIIIRKYIDSIANRLKILRQKMNHQN
modifications: GST-His6 tag
notes: as for B1
Consider B3, for which the PC in data set [1] was 464.28. The “PI(3, 4, 5)P3” value with PI(3,4,5)P3 liposomes is 92.70. Further, the “PI(3, 4)P2” value in the data set with PI(3,4)P2 liposomes is reported as 138.45. Moreover, the “PI(3)P” value with PI(3)P liposomes worked out at 72.00. In addition, the “PI(4, 5)P2” value with PI(4,5)P2 liposomes is listed as 319.65. Further, the “PI(4)P” value with PI(4)P liposomes is reported as 668.47.

B4: BUD32: yeast GST-HisX6 fusion protein on proteome chip (protein, UniProt P53323 1-261, looked up)
EKC/KEOPS complex subunit …: MTQEFIDKVSSYLTPDVDIAPISQGAEAIVFTTTTHPYLPRAKDSHQKYIIKYRPPKRYRHPQIDQALTKHRTLNESRLLAKLYLIPGLCVPQLIACDPYNGFIWLEFLGEDLPGGHGFSNLKNFLWMHDQDPYSDLVATTLRKVGRQIGLLHWNDYCHGDLTSSNIVLVRDGARWTPHLIDFGLGSVSNLVEDKGVDLYVLERAILSTHSKHAEKYNAWIMEGFEEVYREQGAKGAKKLKEVTKRFEEVRLRGRKRSMLG
modifications: GST-His6 fusion tag
notes: as for B1
In data set [1], B4 came in with a PC of 621.00. The “PI(3, 4, 5)P3” value in the data set with PI(3,4,5)P3 liposomes is 108.67. Besides, the “PI(3, 4)P2” value in the data set on PI(3,4)P2 liposomes turned out to be 249.28. Moreover, the “PI(3)P” value in the data set on PI(3)P liposomes turned out to be 318.00. Besides, the “PI(4, 5)P2” value in the data set on PI(4,5)P2 liposomes worked out at 282.63. Also, the “PI(4)P” value in the data set with PI(4)P liposomes is 666.29.

B5: VAC7: yeast GST-HisX6 fusion protein on proteome chip (protein, UniProt P53950 1-1165, looked up)
Vacuolar segregation protein 7: MTEEDRKLTVETETVEAPVANNLLLSNNSNVVAPNPSIPSASTSTSPLHREIVDDSVATANTTSNVVQHNLPTIDNNLMDSDATSHNQDHWHSDINRAGTSMSTSDIPTDLHLEHIGSVSSTNNNSNNALINHNPLSSHLSNPSSSLRNKKSSLLVASNPAFASDVELSKKKPAVISNNMPTSNIALYQTARSANIHGPSSTSASKAFRKASAFSNNTAPSTSNNIGSNTPPAPLLPLPSLSQQNKPKIIERPTMHVTNSREILLGENLLDDTKAKNAPANSTTHDNGPVANDGLRIPNHSNADDNENNNKMKKNKNINSGKNERNDDTSKICTTSTKTAPSTAPLGSTDNTQALTASVSSSNADNHNNNKKKTSSNNNGNNSNSASNKTNADIKNSNADLSASTSNNNAINDDSHESNSEKPTKADFFAARLATAVGENEISDSEETFVYESAANSTKNLIFPDSSSQQQQQQQQPPKQQQQQQNHGITSKISAPLLNNNKKLLSRLKNSRHISTGAILNNTIATISTNPNLNSNVMQNNNNLMSGHNHLDELSSIKQEPPHQLQQQQPPMDVQSVDSYTSDNPDSNVIAKSPDKRSSLVSLSKVSPHLLSSTSSNGNTISCPNVATNSQELEPNNDISTKKSLSNSTLRHSSANRNSNYGDNKRPLRTTVSKIFDSNPNGAPLRRYSGVPDHVNLEDYIEQPHNYPTMQNSVKKDEFYNSRNNKFPHGLNFYGDNNVIEEENNGDSSNVNRPQHTNLQHEFIPEDNESDENDIHSMFYYNHKNDLETKPLISDYGEDEDVDDYDRPNATFNSYYGSASNTHELPLHGRMPSRSNNDYYDFMVGNNTGNNNQLNEYTPLRMKRGQRHLSRTNNSIMNGSIHMNGNDDVTHSNINNNDIVGYSPHNFYSRKSPFVKVKNFLYLAFVISSLLMTGFILGFLLATNKELQDVDVVVMDNVISSSDELIFDITVSAFNPGFFSISVSQVDLDIFAKSSYLKCDSNGDCTVMEQERKILQITTNLSLVEESANNDISGGNIETVLLGTAKKLETPLKFQGGAFNRNYDVSVSSVKLLSPGSREAKHENDDDDDDDGDDGDDENNTNERQYKSKPNARDDKEDDTKKWKLLIKHDYELIVRGSMKYEVPFFNTQKSTAIQKDSMVHPGKK
modifications: GST-His6 tag
notes: as for B1
In data set [1], B5 displayed a PC of −1.17. Moreover, the “PI(3, 4, 5)P3” value in the data set with PI(3,4,5)P3 liposomes came to 13.16. For the same molecule, in the data set on PI(3,4)P2 liposomes, the “PI(3, 4)P2” value is listed as 19.62. In addition, in the data set on PI(3)P liposomes, the “PI(3)P” value is listed as 28.75. Besides, the “PI(4, 5)P2” value in the data set with PI(4,5)P2 liposomes came out at 21.99. Moreover, in the data set on PI(4)P liposomes, the “PI(4)P” value stood at 28.74.
